The nature of data set [1]: Mevalonate decarboxylation activity followed by inorganic phosphate production (ammonium molybdate method). In kind it is biochemical. As for the experimental part: The reaction medium contained 100 mM mevalonate, 40 mM ATP, 10 mM MgCl2, 20 mM KCl, 0.5 mM DTT and enzyme preparation varying from 0.01 to 0.05 mg/ml of protein. 50 mM sodium citrate was used in the range of pH from 4 to 6, and 50 mM Tris-HCl for pH 7 and 7.5. Enzyme-free control assays were carried out in parallel. After 72 h incubation, inorganic phosphate was quantified colorimetrically according to the ammonium molybdate method (Gawronski J D, Benson D R, Anal. Biochem. 327 (2004) 114-118). A 50 μl sample (containing not more than 0.5 μmole of phosphate) was mixed with 150 μl of ammonium molybdate reagent containing 50% v/v acetone, 1.25 N H2SO4, 2.5 mM (NH4)6Mo7O24 and then with 10 μl 1 M citric acid. The mixture was incubated for 2 minutes at room temperature. The absorbance of ammonium phosphomolybdate formed was measured at 355 nm and the quantity of inorganic phosphate estimated using a calibration curve obtained with potassium phosphate.
(§1) The complete assay for mevalonate decarboxylation contains reaction buffer, 100 mM mevalonate, 40 mM ATP, 10 mM MgCl2, 20 mM KCl, 0.5 mM DTT and enzyme preparation at a concentration ranging from 0.01 to 0.05 mg/ml of protein. 50 mM sodium citrate is used in the range of pH from 4 to 6, and 50 mM Tris-HCl for pH 7 and 7.5. Control reactions are carried out in the absence of enzyme, substrate or co-factor.
Inorganic phosphate concentration is measured by spectroscopic colorimetry according to the ammonium molybdate method (Gawronski J D, Benson D R, Anal. Biochem. 327 (2004) 114-118). A 50 μl aliquot from the reaction assay (containing not more than 0.5 μmole of phosphate) is mixed with 150 μl ammonium molybdate reagent, containing 50% volume acetone, 1.25 N H2SO4, 2.5 mM (NH4)6Mo7O24 and then with 10 μl 1 M citric acid. The mixture is then incubated for 2 minutes at room temperature. The absorbance of ammonium phosphomolybdate formed was measured at 355 nm and the quantity of inorganic phosphate estimated using a calibration curve obtained with potassium phosphate.

Data set [2] can be described thus: Product formation as function of mevalonate concentration (permanganate assay). Type of data set: biochemical. The settings on record: purified enzyme, range of mevalonate concentrations (FIG. 6). As for the experimental part:
as §1
The formation of products containing double-bonds is followed by oxidization with alkaline potassium permanganate solution, resulting in increase of absorbance at 420 nm.
To an aliquot of reaction mixture diluted with H2O to 120 μl, 80 μl of permanganate reagent, containing 5 mM KMnO4 and 50 mM NaOH, is added. The mixture is kept at room temperature for 20 min and the absorbance at 420 nm is measured. The calibration curve is prepared using commercial isoprenol.

B1: Thermoplasma volcanium (accession number Q97BY2): MDP decarboxylase enzyme inferred from the genome of Thermoplasma volcanium (protein, listed as Thermoplasma volcanium)
chain: MLHHHHHHSNSSITSVAYPTIGVVLLGGIANEKTRTPLHTSAGIAYTDSCGSIRTESTIYGDSEMHIYFNGTESKDENRSVKSVLERYRNELQSFFGKKDVSYSSLNYGILSGSSDAGAASIGAILSFIDKKNDIHDIENDIRMISESAGRSLHGGLTITWSDGYSAYTERVLGPEHFNNYAIVGFSFDYPRNPSDTIHQNIIKSKRYKQRTIDADEHAHEIKEMARTDDIEGIFEKAEEDTEEYHSILREVGVLVIRENMQKLIEFIKILRKEFWNSYIVTGGSNVYVIVRRDDLERLIHIKNTFGSKPKILNVAGPAWIKKVESD
Take B1: the “phosphate production with mevalonate as substrate” value (“phosphate production” for short) in data set [1] (purified proteins (FIG. 5)) is “significant increase in phosphate production”.

B2: Picrophilus torridus MDP decarboxylase: diphosphomevalonate (MDP) decarboxylase EC 4.1.1.33 from Picrophilus torridus, expressed in E. coli from the native or codon-optimized gene (protein, listed as Picrophilus torridus)
chain: MENYNVKTRAFPTIGIILLGGISDKKNRIPLHTTAGIAYTGINNDVYTETKLYVSKDEKCYIDGKEIDLNSDRSPSKVIDKFKHEILMRVNLDDENNLSIDSRNFNILSGSSDSGAAALGECIESIFEYNINIFTFENDLQRISESVGRSLYGGLTVNYANGRESLTEPLLEPEAFNNFTIIGAHFNIDRKPSNEIHENIIKHENYRERIKSAERKAKKLEELSRNANIKGIFELAESDTVEYHKMLHDVGVDIINDRMENLIERVKEMKNNFWNSYIVTGGPNVFVITEKKDVDKAMEGLNDLCDDIRLLKVAGKPQVISKNF
modifications: DSM 9790
notes: diphosphomevalonate (MDP) decarboxylase EC 4.1.1.33 from Picrophilus torridus, expressed in E. coli from the native or codon-optimized gene
B2: the “enzyme activity with mevalonate as substrate” value in data set [1] (crude lysate of E. coli, optimized gene versus native sequence (FIG. 4b)) is recorded as “higher enzyme activity”. The “phosphate production” value in data set [1] (library screening, E. coli extracts, 100 mM mevalonate, 40 mM ATP, 72 h incubation) is given as “reproducible increase in phosphate production over the background level”. Also, in data set [2], the conversion rate entry is recorded as “increase with the concentration of mevalonate”.

B3: Thermoplasma acidophilum (accession number Q9H1N1): MDP decarboxylase enzyme inferred from the genome of Thermoplasma acidophilum (protein, listed as Thermoplasma acidophilum)
chain: MLHHHHHHTYRSIGSTAYPTIGVVLLGGIANPVTRTPLHTSAGIAYSDSCGSIRSETRIYADEATHIYFNGTESTDDNRSVRRVLDRYSSVFEEAFGTKTVSYSSQNFGILSGSSDAGAASIGAAILGLKPDLDPHDVENDLRAVSESAGRSLFGGLTITWSDGFHAYTEKILDPEAFSGYSIVAFAFDYQRNPSDVIHQNIVRSDLYPARKKHADEHAHMIKEYAKTNDIKGIFDLAQEDTEEYHSILRGVGVNVIRENMQKLISYLKLIRKDYWNAYIVTGGSNVYVAVESENADRLFSIENTFGSKKKMLRIVGGAWHRRPE
B3: the “phosphate production” value in data set [1] (purified proteins (FIG. 5)) is recorded as “significant increase in phosphate production”.

Source of the values: patent US9752163B2, “Process for the production of isoprenol from mevalonate employing a diphosphomevalonate decarboxylase” (Global Bioenergies, priority 2009, dated 2017).
